B1: Mothers against decapentaplegic homolog 4 (Homo sapiens), Q13485 (parent)
chain: MDNMSITNTPTSNDACLSIVHSLMCHRQGGESETFAKRAIESLVKKLKEKKDELDSLITAITTNGAHPSKCVTIQRTLDGRLQVAGRKGFPHVIYARLWRWPDLHKNELKHVKYCQYAFDLKCDSVCVNPYHYERVVSPGIDLSGLTLQSNAPSSMMVKDEYVHDFEGQPSLSTEGHSIQTIQHPPSNRASTETYSTPALLAPSESNATSTANFPNIPVASTSQPASILGGSHSEGLLQIASGPQPGQQQNGFTGQPATYHHNSTTTWTGSRTAPYTPNLPHHQNGHLQHHPPMPPHPGHYWPVHNELAFQPPISNHPAPEYWCSIAYFEMDVQVGETFKVPSSCPIVTVDGYVDPSGGDRFCLGQLSNVHRTEAIERARLHIGKGVQLECKGEGDVWVRCLSDHAVFVQSYYLDREAGRAPGDAVHKIYPSAYIKVFDLRQCHRQMQQQAATAQAAAAAQAAAVAGNIPGPGSVGGIAPAISLSAAAGIGVDDLRRLCILRMSFVKGWGPDYPRQSIKETPCWIEIHLHRALQLLDEVLHTMPIADPQPLD
partner: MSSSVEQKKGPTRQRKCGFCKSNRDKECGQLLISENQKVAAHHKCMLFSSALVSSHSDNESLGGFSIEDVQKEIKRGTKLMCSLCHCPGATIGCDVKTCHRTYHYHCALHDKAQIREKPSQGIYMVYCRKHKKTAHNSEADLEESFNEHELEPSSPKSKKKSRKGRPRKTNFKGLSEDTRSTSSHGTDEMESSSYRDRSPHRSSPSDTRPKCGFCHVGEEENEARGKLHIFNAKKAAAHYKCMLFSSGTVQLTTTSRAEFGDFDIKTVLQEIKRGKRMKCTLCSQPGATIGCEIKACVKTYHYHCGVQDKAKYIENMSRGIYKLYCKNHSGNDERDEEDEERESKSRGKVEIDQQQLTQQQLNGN
B2: Mothers against decapentaplegic homolog 4 (Homo sapiens), Q13485 (parent)
chain: B1 chain
partner: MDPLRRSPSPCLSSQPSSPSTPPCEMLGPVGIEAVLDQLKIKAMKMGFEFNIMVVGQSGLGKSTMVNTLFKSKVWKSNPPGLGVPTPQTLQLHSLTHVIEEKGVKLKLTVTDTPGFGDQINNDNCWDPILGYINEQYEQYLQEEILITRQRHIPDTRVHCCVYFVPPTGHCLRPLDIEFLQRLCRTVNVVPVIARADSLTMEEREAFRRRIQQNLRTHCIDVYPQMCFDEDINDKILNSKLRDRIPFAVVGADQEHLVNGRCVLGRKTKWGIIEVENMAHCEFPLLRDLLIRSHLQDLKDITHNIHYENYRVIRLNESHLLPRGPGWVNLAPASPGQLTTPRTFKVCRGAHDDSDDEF
B3: Mothers against decapentaplegic homolog 4 (Homo sapiens), Q13485 (parent)
chain: B1 chain
partner: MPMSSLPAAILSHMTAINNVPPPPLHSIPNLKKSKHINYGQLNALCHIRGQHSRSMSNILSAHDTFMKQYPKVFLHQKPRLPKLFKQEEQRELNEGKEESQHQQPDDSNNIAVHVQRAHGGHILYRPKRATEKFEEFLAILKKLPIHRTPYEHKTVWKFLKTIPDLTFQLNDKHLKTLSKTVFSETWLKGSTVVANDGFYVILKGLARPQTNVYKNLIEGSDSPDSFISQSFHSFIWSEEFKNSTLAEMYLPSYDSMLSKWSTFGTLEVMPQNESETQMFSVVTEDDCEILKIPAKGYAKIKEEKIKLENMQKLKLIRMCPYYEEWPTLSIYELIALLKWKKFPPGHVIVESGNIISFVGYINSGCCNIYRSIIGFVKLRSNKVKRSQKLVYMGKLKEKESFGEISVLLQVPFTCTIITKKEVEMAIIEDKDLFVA
B4: Mothers against decapentaplegic homolog 4 (Homo sapiens), Q13485 (parent)
chain: B1 chain
partner: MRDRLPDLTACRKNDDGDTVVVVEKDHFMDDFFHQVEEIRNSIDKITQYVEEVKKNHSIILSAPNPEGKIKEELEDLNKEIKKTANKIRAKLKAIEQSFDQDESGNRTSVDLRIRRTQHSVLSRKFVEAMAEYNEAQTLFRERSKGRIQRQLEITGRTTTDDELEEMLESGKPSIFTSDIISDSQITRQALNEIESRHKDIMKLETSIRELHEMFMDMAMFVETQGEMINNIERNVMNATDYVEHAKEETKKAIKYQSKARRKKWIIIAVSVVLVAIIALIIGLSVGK
B5: Mothers against decapentaplegic homolog 4 (Homo sapiens), Q13485 (parent)
chain: B1 chain
partner: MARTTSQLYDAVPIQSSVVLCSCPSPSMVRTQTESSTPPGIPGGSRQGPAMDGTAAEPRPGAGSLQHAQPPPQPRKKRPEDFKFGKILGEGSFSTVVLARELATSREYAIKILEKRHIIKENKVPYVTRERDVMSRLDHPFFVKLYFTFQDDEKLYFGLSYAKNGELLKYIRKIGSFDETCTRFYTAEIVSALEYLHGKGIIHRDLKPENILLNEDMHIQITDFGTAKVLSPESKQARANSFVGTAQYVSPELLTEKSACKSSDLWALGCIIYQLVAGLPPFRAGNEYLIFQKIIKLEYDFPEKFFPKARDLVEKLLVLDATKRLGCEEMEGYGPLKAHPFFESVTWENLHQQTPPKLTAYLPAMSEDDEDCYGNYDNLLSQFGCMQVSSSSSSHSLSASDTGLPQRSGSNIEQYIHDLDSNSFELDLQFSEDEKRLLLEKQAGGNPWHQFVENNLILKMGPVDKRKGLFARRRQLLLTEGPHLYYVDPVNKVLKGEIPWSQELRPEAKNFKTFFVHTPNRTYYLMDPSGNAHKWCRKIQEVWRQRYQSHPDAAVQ
B6: Mothers against decapentaplegic homolog 4 (Homo sapiens), Q13485 (parent)
chain: B1 chain
partner: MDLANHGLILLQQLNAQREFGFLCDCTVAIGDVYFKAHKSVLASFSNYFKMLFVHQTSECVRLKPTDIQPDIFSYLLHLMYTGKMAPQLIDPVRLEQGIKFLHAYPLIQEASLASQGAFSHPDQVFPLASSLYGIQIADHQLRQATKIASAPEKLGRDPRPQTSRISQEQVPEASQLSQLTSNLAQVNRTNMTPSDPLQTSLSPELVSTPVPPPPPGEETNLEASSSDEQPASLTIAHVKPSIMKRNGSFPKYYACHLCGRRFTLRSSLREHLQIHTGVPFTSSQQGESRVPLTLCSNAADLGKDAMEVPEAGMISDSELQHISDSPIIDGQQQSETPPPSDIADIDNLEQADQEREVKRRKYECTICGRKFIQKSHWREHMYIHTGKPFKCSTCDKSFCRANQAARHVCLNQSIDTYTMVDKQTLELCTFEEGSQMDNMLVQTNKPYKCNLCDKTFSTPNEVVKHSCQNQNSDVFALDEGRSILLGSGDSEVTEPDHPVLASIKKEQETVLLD
B7: Mothers against decapentaplegic homolog 4 (Homo sapiens), Q13485 (parent)
chain: B1 chain
partner: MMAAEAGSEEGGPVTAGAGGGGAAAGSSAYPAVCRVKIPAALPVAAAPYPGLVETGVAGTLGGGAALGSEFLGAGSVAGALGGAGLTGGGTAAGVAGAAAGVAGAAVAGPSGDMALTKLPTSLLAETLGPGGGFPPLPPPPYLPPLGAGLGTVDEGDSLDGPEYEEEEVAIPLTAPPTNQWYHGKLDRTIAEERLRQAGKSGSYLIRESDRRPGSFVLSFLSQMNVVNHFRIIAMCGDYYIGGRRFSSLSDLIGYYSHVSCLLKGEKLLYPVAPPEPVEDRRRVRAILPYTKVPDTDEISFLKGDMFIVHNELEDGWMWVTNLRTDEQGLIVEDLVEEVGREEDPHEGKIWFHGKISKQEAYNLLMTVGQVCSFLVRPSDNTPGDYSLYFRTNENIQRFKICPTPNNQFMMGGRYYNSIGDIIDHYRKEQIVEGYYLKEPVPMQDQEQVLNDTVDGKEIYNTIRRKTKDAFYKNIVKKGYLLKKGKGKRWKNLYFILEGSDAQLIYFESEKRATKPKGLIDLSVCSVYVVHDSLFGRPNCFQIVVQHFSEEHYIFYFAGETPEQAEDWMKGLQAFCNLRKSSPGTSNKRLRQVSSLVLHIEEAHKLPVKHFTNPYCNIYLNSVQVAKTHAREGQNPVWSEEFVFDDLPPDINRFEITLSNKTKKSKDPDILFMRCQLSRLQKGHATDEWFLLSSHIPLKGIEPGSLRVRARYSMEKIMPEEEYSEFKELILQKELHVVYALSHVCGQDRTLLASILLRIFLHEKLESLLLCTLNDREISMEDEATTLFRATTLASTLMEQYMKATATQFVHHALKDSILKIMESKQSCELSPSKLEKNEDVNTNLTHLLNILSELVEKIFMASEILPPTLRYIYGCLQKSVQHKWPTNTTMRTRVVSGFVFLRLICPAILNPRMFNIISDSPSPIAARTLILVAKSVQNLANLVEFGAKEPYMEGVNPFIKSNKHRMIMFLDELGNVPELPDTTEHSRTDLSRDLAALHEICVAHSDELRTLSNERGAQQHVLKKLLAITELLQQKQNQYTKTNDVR
B8: Mothers against decapentaplegic homolog 4 (Homo sapiens), Q13485 (parent)
chain: B1 chain
partner: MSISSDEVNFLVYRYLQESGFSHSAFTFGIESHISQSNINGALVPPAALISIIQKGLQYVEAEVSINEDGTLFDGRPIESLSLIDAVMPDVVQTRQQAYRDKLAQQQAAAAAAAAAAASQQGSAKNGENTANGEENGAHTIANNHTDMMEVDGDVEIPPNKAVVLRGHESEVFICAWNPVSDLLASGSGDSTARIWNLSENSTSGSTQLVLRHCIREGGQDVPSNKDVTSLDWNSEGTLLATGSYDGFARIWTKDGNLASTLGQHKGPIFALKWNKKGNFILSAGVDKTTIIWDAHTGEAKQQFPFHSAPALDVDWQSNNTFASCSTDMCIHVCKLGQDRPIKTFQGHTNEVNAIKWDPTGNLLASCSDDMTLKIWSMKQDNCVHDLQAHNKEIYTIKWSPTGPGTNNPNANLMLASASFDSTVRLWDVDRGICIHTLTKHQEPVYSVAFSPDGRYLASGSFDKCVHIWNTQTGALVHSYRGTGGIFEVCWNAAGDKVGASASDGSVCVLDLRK

The source of these data is IntAct's records for PubMed 35512704.

One experiment covers variants of B1. The settings on record: with phf6_human PHF6, Q8IWS0.
Turning to R361C, the “effect of a mutation on the interaction” value was “with no effect”.

Variants of B2 are the subject of another experiment. As to conditions: with sep12_human SEPTIN12, Q8IYM1.
Consider R361C, for which the “effect of a mutation on the interaction” value is recorded as “with no effect”.

In a further experiment the parent is B3. The settings on record: with cnbd1_human CNBD1, Q8NA66.
For the variant R361H, the “effect of a mutation on the interaction” value is “with no effect”.

In the next experiment the parent is B4. As to conditions: with stx2_human STX2, P32856.
Take G386D: the “effect of a mutation on the interaction” value is recorded as “with no effect”.

Variants of B5 are the subject of the next experiment. The settings on record: with pdpk1_human PDPK1, O15530.
As to R361H, the “effect of a mutation on the interaction” value is reported as “with no effect”.

The variants in another experiment derive from B6. As to conditions: with zbtb2_human ZBTB2, Q8N680.
Turning to R361H, the “effect of a mutation on the interaction” value is listed as “with no effect”.

The next experiment covers variants of B7. The settings on record: with rasa1_human RASA1, P20936.
R361H: the “effect of a mutation on the interaction” value is “with no effect”.

In the next experiment the parent is B8. As to conditions: with tbl1r_human TBL1XR1, Q9BZK7.
With G386D, the “effect of a mutation on the interaction” value was “with no effect”.
